Source: patent publication US10993998B2, “Determinants of cancer response to immunotherapy by PD-1 blockade” (Memorial Sloan Kettering Cancer Center, priority 2014, dated 2021)

What was measured:
[1] = system: CD8+ T-cells; experiment: Intracellular cytokine staining after re-stimulation with mutant or wild-type HERC1 peptide; assay type: cell-based, human; conditions: PBLs from day 63 and 297 expanded with mutant peptide, re-stimulated
Experimental: HERC1 P>S mutant and wild type peptides of 9 amino acids in length (Mutant: […] (SEQ ID NO: 344), Wild type: […] (SEQ ID NO: 5925)) were synthesized (GenScript Piscataway, N.J.). 1.5×10^6 patient PBMCs were cultured with 1.5×10^6 autologous PBMCs pulsed with HERC1 P>S mutant peptide in RPMI media containing 10% pooled human serum (PHS), 10 mM HEPES, 2 mM L Glutamine, and 50 μM β-mercaptoethanol supplemented with IL-15 (10 ng/ml) and IL-2 (10 IU/ml), using methods previously described (59). […] Cells were then treated with 1× Brefeldin A and monensin (BioLegend) for 4 hours, and subsequently stained with 1 μL Alexa Fluor 405-CD3 (Invitrogen), 3 μL APC-H7-CD8 (BD Bioscience), and 1 μL ECD-CD4 (Beckman Coulter). Upon subsequent washing and permeabilization, the cells were stained with the following antibodies to intracellular cytokines: 3 μL Alexa Fluor 647-IFN-γ (Biolegend), 3 μL PE-MIP-1β, and 1 μL PE-Cy7-TNF-α (BD Pharmingen). Data were acquired by flow cytometry (using CYAN flow cytometer, Summit software, Dako Cytomation California Inc., Carpinteria, Calif.). Analysis was done by FlowJo version 10.1, TreeStar, Inc. CD3+ single cell lymphocytes were gated for analysis (SS vs. FS [low, mid], FS vs. Pulse Width [all, low], and CD3 vs. “dump” channel [high, low]).

[2] = system: CD8+ T-cells; experiment: MHC multimer screening of neoantigen-specific CD8+ T-cells in serially collected peripheral blood lymphocytes of a pembrolizumab responder; assay type: cell-based, human
Experimental: HLA-A restricted candidate neoantigens were synthesized in-house (Netherlands Cancer Institute) and HLA-multimers containing these peptides were produced by micro-scale parallel UV-induced peptide exchange reactions as previously described (26, 58). Briefly, peptide-MHC complexes loaded with UV-sensitive peptide were subjected to 366-nm UV light (CAMAG) for one hour at 4° C. in the presence of candidate neoantigen peptide in a 384-well plate. pMHC multimers were generated using a total of 11 different fluorescent streptavidin (SA) conjugates (Invitrogen). For each pMHC monomer, conjugation was performed with two of these fluorochromes. NaN3 (0.02% w/v) and an excess of D-biotin (26.4 mM, Sigma) were added to block residual binding sites. For T cell staining an combinatorial encoding strategy was employed to be able to analyze for reactivity against up to 47 different peptides in parallel (27). The PBMC samples were thawed, treated with DNAse for 1 h and stained with pMHC multimer panels for 15 min at 37 C. Subsequently, anti-CD8-AF700 (Invitrogen), anti-CD4-FITC (Invitrogen), anti-CD14-FITC (Invitrogen), anti-CD16-FITC (Invitrogen), anti-CD19-FITC (Invitrogen), and LIVE/DEAD Fixable IR Dead Cell Stain Kit (Invitrogen) were added for additional 20 min on ice. Data acquisition was performed on an LSR II flow cytometer (Becton Dickinson) with FACSDiva 6 software. Cutoff values for the definition of positive responses were ≥0.005% of total CD8+ cells and ≥10 events. For immunophenotypical analysis, day 44 PMLs were stained with HERC1 P3278S MHC multimers in two colors (qdot 625 (Invitrogen) and PerCPeFluor710 (ebioscience)) plus anti-CD45RA Ab (Invitrogen), anti-CCR7 Ab (BD Bioscience), anti-HLA-DR Ab (BD Bioscience), and anti-LAG-3 Ab (R&D systems). The immunophenotype of HERC1 P3278S reactive and bulk CD8+ T-cells were analyzed. Data were acquired using an LSR II flow cytometer (Becton Dickson) with FASCDiva 6 software.

[3] = system: stage IV non-small cell lung cancer (NSCLC) patients; experiment: Clinical efficacy of pembrolizumab in NSCLC patients (protocol NCT01295827), by tumor genomic subgroup; assay type: in vivo, human; conditions: for ORR: all 34
Experimental: All patients had stage IV non-small cell lung cancer (NSCLC) and were treated at Memorial Sloan Kettering Cancer Center (n=29) or the University of California at Los Angeles (n=5) on protocol NCT01295827 (FIG. 17). All patients initiated therapy in 2012-2013 and were treated at 10 mg/kg every 2-3 weeks, except for 5 patients treated at 2 mg/kg every 3 weeks. The overall response rate and progression-free survival are reported to be similar across dose and schedules (6). All patients had consented to Institutional Review Board-approved protocols permitting tissue collection and sequencing. PD-L1 expression was assessed prospectively by immunohistochemistry using a previously validated murine anti-human anti-PD-L1 antibody (clone 22C3, Merck & Co., Inc.). Membranous expression of PD-L1 on tumor cells and infiltrating immune cells were scored. 31 (91%) scored at least 1% positive for PD-L1 expression; 2 patients were PD-L1 negative; and 1 was unknown. Smoking status was evaluated using previously completed self-reported smoking questionnaires executed as standard of care at MSKCC or review of medical records at UCLA.
Per protocol, CT scans were performed every nine weeks. Partial and complete responses were confirmed by a repeat imaging occurring at least 4 weeks after the initial identification of response; unconfirmed responses were considered stable or progressive disease dependent on results of the second CT scan. Durable clinical benefit (DCB) was defined as stable disease or partial response lasting longer than 6 months (week 27, the time of third protocol-scheduled response assessment). No durable benefit (NDB) was defined as progression of disease ≤6 months of beginning therapy. Patients who were still ongoing study therapy at the time of the data lock (Oct. 10, 2014) but who had not yet reached 6 months of follow up were considered “Not reached” (NR). These patients were not included in the analysis of DCB/NDB, but were included in assessments of objective response and progression-free survival. For patients with ongoing response to study therapy, progression free survival was censored at the date of the most recent imaging evaluation. For alive patients, overall survival was censored at the date of last known contact.
Mann-Whitney test was used to compare mutation burdens and differences in the frequency of nucleotide changes. The Log-Rank and Mantel-Haenszel tests were used to compare Kaplan-Meier survival curves. The proportion of objective responders/non-responders or DCB/NDB were compared using Fisher's Exact Test. The receiver operator characteristic (ROC) curve was generated by plotting the proportion of all DCB patients with mutation burden above any given cut point (sensitivity) against the proportion of the NDB patients that would also exceed the same cut point (1-specificity). The area under the curve and exact 95% confidence intervals are reported. Correlations between nonsynonymous mutation burden and neoantigen burden, neoantigen burden and best overall response, and frequency of neoantigen burden/nonsynonymous mutation and best overall response were calculated using Spearman correlation formula. Statistical analyses were performed using GraphPad Prism v.6 (Graphpad Prism Software, San Diego, Calif.).

[4] = system: stage IV non-small cell lung cancer (NSCLC) patients; conditions: 10 mg/kg every 2-3 weeks vs 2 mg/kg every 3 weeks; reference (6); cited from earlier work
[5] = cited from earlier work
[6] = approximately 2000 patients; cited from earlier work
[7] = discovery cohort, high nonsynonymous burden
[8] = discovery cohort, low nonsynonymous burden
[9] = validation cohort, nonsynonymous mutation burden above the median
[10] = validation cohort, nonsynonymous mutation burden below the median
[11] = 411 patients, Trial 1, all grades

ASNAPSAAK (listed as Homo sapiens) [synthesized 9 amino acid wild type HERC1 peptide]
polyfunctional CD8+ T-cells (IFNγ, CD107a, MIP113, TNFα production) in response to peptide [1]: not

ASNASSAAK (listed as Homo sapiens) [synthesized 9 amino acid mutant HERC1 P>S neoantigen peptide]
HERC1 P3278S neoantigen-specific CD8+ T-cell response (MHC multimer+) ([2]; Day 44): 0.044 % of Cd8+ T-cells
HERC1 P3278S neoantigen-specific CD8+ T-cell response (MHC multimer+) ([2]; at start of therapy, level of detection): < 0.005%
HERC1 P3278S neoantigen-specific CD8+ T-cell response (MHC multimer+) ([2]; subsequent months as tumor regression plateaued): just above background
HERC1 P3278S neoantigen-specific CD8+ T-cell response (MHC multimer+) ([2]; within 3 weeks post therapy initiation): 0.040 % of CD8+ T-cells
polyfunctional CD8+ T-cells (IFNγ, CD107a, MIP113, TNFα production) in response to peptide [1]: detected

pembrolizumab
median PFS ([3]; TH tumors): not reached
rate of DCB ([3]; TH tumors): 77%
median PFS ([3]; TL tumors): 3.5
rate of DCB ([3]; TL tumors): 22%
ORR ([3]; transversion-high (TH, smoking signature) tumors): 56%
ORR ([3]; transversion-low (TL) tumors): 17%
confirmed objective response rate (ORR) [3, 7]: 63%
median PFS [3, 7]: 14.5 months
rate of durable clinical benefit (DCB) ([3]; discovery cohort, high nonsynonymous burden (above median of cohort)): Seventy-three
rate of durable clinical benefit (DCB) ([3]; discovery cohort, low mutation burden): 13%
confirmed objective response rate (ORR) [3, 8]: 0%
median PFS [3, 8]: 3.7 months
rate of DCB ([3]; high nonsynonymous mutation burden (>200) and some PD-L1 expression (weak/strong)): 91%
rate of DCB ([3]; low mutation burden and some degree of PD-L1 expression): 10%
decrease in tumor burden ([3]; one patient (Study ID #9) with exceptional response): 95%
duration of partial response ([3]; one tumor with very low burden (56 nonsynonymous mutations)): 8 months
median PFS ([3]; overall set, high neoantigen burden): 14.5 months
median PFS ([3]; overall set, low neoantigen burden): 3.5 months
rate of DCB ([3]; self-reported ever smokers): 48%
rate of DCB ([3]; self-reported never-smokers): 33%
tumors with no durable benefit (NDB) ([3]; tumors with ≥178 nonsynonymous mutations, both cohorts): 5 of 18
median PFS [3, 9]: not reached
rate of DCB [3, 9]: 83%
median PFS [3, 10]: 3.4 months
rate of DCB [3, 10]: 22%
rate of durable benefit ([3]; validation cohort, tumors harboring ≥178 mutations): 75%
rate of durable benefit ([3]; validation cohort, tumors with <178 mutations): 14%
rate of DCB ([3]; weak PD-L1 expression, high nonsynonymous mutation burden): 75%
rate of DCB ([3]; weak PD-L1 expression, low mutation burden): 11%
overall response rate and progression-free survival across dose and schedules [4]: similar
Pneumonitis, patients ([5]; 411 melanoma patients, Trial 1, all grades): 2.9%
Colitis (including microscopic colitis), patients [5, 11]: 1%
Hepatitis (including autoimmune hepatitis), patients [5, 11]: 0.5%
Hyperthyroidism, patients [5, 11]: 1.2%
Hypophysitis, patients [5, 11]: 0.5%
Hypothyroidism, patients [5, 11]: 8.3%
Colitis Grade 2, patients ([5]; Trial 1): 0.2%
Colitis Grade 3, patients ([5]; Trial 1): 0.5%
Hepatitis Grade 4, patients ([5]; Trial 1): 0.2%
Hyperthyroidism Grade 2, patients ([5]; Trial 1): 0.5%
Hyperthyroidism Grade 3, patients ([5]; Trial 1): 0.2%
Hypophysitis Grade 2, patients ([5]; Trial 1): 0.2%
Hypophysitis Grade 4, patients ([5]; Trial 1): 0.2%
Hypothyroidism Grade 3, patients ([5]; Trial 1): 0.2%
Pneumonitis Grade 2, patients ([5]; Trial 1): 1.9%
Pneumonitis Grade 3, patients ([5]; Trial 1): 0.2%
discontinuation of KEYTRUDA due to pneumonitis, patients ([5]; Trial 1): 0.7%
median duration of colitis ([5]; Trial 1): 2.6 months
median duration of hyperthyroidism ([5]; Trial 1): 2.8 months
median duration of pneumonitis ([5]; Trial 1): 4.9 months
median time to development of pneumonitis ([5]; Trial 1): 5 months
other immune-mediated adverse reactions, patients: exfoliative dermatitis, uveitis, arthritis, myositis, pancreatitis, hemolytic anemia, partial seizures, adrenal insufficiency ([5]; Trial 1): less than 1%
patients who received corticosteroids or discontinued KEYTRUDA for management of hypothyroidism ([5]; Trial 1): No patient
permanent discontinuation of KEYTRUDA due to colitis, patients ([5]; Trial 1): 0.2%
permanent discontinuation of KEYTRUDA due to hyperthyroidism, patients ([5]; Trial 1): 0.2%
Nephritis, patients ([5]; all grades): 0.7%
duration of hepatitis ([5]; case of Grade 4 hepatitis): 1.1 months
Grade 2 autoimmune nephritis, patients ([5]; human, in vivo): 0.2%
duration of autoimmune nephritis ([5]; human, in vivo): 3.2 months
most common adverse reactions, patients: fatigue, cough, nausea, pruritus, rash, decreased appetite, constipation, arthralgia, diarrhea ([5]; human, in vivo): > 20%
patients who fully recovered renal function ([5]; nephritis, with high-dose corticosteroids): All three
interstitial nephritis with renal failure, patients ([5]; one Grade 3 and one Grade 4): 0.5%
pneumonitis completely resolved ([5]; patients with Grade 2-3 pneumonitis): seven of the nine
complete resolution of colitis ([5]; patients with colitis): All four
complete resolution of hepatitis ([5]; patients with hepatitis): Both
complete resolution of hyperthyroidism ([5]; patients with hyperthyroidism): All five
additional immune-mediated adverse reactions, patients: myasthenic syndrome, optic neuritis, rhabdomyolysis [6]: less than 1%
